For experiment [1], the target named is Cse4-NCP (Cse4 containing nucleosome core particle) (budding yeast) (UniProt P36012). Description: cross-linking.
Another experiment addresses Ame1/Okp1 complex (budding yeast, UniProt P38313;P53298). Description: pull-down.
Experiment [2] deals with Mif2* (Mif2-6xHis-6xFlag wild type, dephosphorylated and in vitro phosphorylated by Cdc5) (budding yeast, UniProt P35201 1-549). Kind of experiment: pull-down.
A further experiment concerns the target T1, Dsn1/Nsl1 (budding yeast, UniProt P40568;Q12143).
T1 sequence 1: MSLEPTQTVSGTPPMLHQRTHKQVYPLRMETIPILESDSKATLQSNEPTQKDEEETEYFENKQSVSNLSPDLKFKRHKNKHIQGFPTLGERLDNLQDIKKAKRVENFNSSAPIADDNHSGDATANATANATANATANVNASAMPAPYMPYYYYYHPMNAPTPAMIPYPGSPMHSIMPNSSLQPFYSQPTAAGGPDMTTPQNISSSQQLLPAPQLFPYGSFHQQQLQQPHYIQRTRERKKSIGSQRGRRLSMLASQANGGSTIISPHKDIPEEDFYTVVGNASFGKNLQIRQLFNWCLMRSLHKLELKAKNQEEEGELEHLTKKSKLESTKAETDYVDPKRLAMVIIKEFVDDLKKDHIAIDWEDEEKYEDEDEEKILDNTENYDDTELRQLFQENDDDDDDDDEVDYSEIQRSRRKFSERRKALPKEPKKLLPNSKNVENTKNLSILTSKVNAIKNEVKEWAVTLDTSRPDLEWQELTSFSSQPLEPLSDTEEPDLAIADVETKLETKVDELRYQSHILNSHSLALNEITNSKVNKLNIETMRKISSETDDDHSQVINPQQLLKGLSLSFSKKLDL
T1 sequence 2: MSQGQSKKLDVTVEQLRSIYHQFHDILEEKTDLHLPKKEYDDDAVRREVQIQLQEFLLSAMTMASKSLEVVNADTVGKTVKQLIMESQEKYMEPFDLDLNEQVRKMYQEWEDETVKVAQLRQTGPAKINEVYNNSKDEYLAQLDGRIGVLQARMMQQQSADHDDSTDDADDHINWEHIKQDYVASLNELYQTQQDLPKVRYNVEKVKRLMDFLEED
Kind of experiment: SEC. On the technique in general: In gel filtration, larger molecules generally elute earlier.

The next experiment has as its target Spc24/25 complex (budding yeast, UniProt Q04477;P40014). Description: cross-linking.

Sequence of Ame1/Okp1 complex (P38313 whole entry, chain 1 of 2): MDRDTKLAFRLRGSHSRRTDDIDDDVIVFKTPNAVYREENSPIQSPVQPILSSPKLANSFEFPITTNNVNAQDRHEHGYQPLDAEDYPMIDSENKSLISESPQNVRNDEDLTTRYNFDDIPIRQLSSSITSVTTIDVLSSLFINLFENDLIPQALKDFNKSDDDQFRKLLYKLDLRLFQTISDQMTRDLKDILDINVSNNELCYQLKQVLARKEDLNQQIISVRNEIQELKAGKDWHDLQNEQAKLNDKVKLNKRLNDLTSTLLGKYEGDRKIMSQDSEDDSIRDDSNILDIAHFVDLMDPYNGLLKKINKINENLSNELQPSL
Sequence of Ame1/Okp1 complex (P53298 whole entry, chain 2 of 2): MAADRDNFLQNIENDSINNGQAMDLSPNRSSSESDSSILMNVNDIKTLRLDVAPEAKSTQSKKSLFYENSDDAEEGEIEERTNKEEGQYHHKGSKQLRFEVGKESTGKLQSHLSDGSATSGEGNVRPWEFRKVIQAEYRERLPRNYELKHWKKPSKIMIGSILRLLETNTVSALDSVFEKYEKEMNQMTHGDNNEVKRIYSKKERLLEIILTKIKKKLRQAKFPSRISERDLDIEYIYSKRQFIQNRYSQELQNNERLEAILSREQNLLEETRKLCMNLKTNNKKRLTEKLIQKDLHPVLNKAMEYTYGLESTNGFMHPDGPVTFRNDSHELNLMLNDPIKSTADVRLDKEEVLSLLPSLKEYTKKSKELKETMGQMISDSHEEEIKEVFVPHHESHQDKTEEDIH
Sequence of Spc24/25 complex (Q04477 whole entry, chain 1 of 2): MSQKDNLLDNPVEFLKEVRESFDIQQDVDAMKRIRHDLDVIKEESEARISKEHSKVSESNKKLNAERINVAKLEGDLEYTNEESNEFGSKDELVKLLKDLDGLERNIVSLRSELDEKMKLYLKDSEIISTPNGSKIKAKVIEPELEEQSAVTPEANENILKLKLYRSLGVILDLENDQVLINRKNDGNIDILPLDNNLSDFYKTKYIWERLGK
Sequence of Spc24/25 complex (P40014 whole entry, chain 2 of 2): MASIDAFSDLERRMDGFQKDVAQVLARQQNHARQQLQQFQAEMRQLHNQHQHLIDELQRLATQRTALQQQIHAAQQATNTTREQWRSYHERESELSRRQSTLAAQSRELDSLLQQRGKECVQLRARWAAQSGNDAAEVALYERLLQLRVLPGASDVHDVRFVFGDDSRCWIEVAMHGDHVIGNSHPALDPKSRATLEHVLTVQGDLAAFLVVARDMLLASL

Molecule “Mif2* (Mif2-6xHis-6xFlag wild type, dephosphorylated and in vitro phosphorylated by Cdc5) (from UniProt P35201 1-549) (natural protein)” returned a fold decrease of KD with MTW1c(Dsn1^S240D,S250D) against wild-type MTW1c in experiment [1] of 20 fold.

B1: Mtw1/Nnf1 (complex)
chain 1: MSAPTMRSTSILTEHLGYPPISLVDDIINAVNEIMYKCTAAMEKYLLSKSKIGEEDYGEEIKSGVAKLESLLENSVDKNFDKLELYVLRNVLRIPEEYLDANVFRLENQKDLVIVDENELKKSEEKLREKVNDVELAFKKNEMLLKRVTKVKRLLFTIRGFKQKLNELLKCKDDVQLQKILESLKPIDDTMTLLTDSLRKLYVDSESTSSTEEVEALLQRLKTNGKQNNKDFRTRYIDIRTNNVLRKLGLLGDKEDEKQSAKPDARTQAGDIVSIDIEEPQLDLLDDVL
chain 2: MVNSHGIRYIRLKQVFNRALDQSISKLQSWDKVSSCFPQYVNSKQGAINVANCQRQLTEFWTELCQREFKEIMEERNVEQKLNELDELILEAKERYTDRDQDEVNKGPAIDELSSKELVECHLYSQRMHAIHEIDERLAKVNEMNDQLAQELKDLETQVEVEKNEIGKMYDEYLGSHTDQPANVLLVQSLNDMVLELKENY
On to B1, for which the binding result (with Ame1/Okp1 complex; in experiment [2]; with Dsn1/Nsl1) was “binds” in each case.

The Kd is the equilibrium constant for the complex coming apart. A low value points to higher affinity. In the experiment with Spc24/25 complex, NKDPNEVRSFLQDLSQVLARKSQGN [Cnn1^60-84 peptide] came in with a Kd of 2600 nM.

B2: Mif2^Δ200-230 mutant, in vitro phosphorylated by Cdc5 (natural protein)
chain: MDYMKLGLKSRKTGIDVKQDIPKDEYSMENIDDFFKDDETSLISMRRKSRRKSSLFLPSTLNGDTKNVLPPFLQSYKSQDDEVVQSPSGKGDGSRRSSLLSHQSNFLSPANDFEPIEEEPEQEENDIRGNDFATPITQKLSKPTYKRKYSTRYSLDTSESPSVRLTPDRITNKNVYSDVPDLVADEDDDDRVNTSLNTSDSGSDSASDSDGDNTYQEVEEEAEVNTNDNEDDYIRRQASDVVRTDSIIDRNGLRKSTRVKVAPLQYWRNEKIVYKRKSNKPVLDIDKIVTYDESEDEEEILAAQRRKKQKKKPTPTRPYNYVPTGRPRGRPKKDPNAKENLIPEDPNEDIIERIESGGIENGEWLKHGILEANVKISDTKEETKDEIIAFAPNLSQTEQVKDTKDENFALEIMFDKHKEYFASGILKLPAISGQKKLSNSFRTYITFHVIQGIVEVTVCKNKFLSVKGSTFQIPAFNEYAIANRGNDEAKMFFVQVTVSEDANDDNDKELDSTFDTFG
Take B2: in the experiment with Ame1/Okp1 complex, the binding result was “binds”.

Source of the values: paper doi:10.1101/2022.03.31.486303 (bioRxiv, 2022).
